Results published in patent publication US20210292392A1 (TSB THERAPEUTICS BEIJING, published 2021).

B1: P2C-1C10 (antibody, V domains shown)
VH: QVQLVQSGAEVKKPGSSVKVSCKASGGTFSSYAIIWVRQAPGQGLEWMGGIIPIFGTANYAQKFQGRVTITADESTSTAYMELSSLRSEDTAVYYCARVVTGYYFDYWGQGTLVTVSS
VL: EIVLTQSPATLSLSPGERATLSCRASQSVSSYLAWYQQKPGQAPRLLIYDASNRATGIPARFSGSGSGTDFTLTISSLEPEDFAVYYCQQRSNWPSFGQGTKLEIKR
B2: P5A-1D1 (antibody, V domains shown)
VH: EVQLVESGGGLIQPGGSLRLSCAASGLTVSSNYMSWVRQAPGKGLEWVSVIYSGGSTYYADSVKGRFTISRDNSKNTLYLQMNSLRAEDTAVYYCARDLYYYGMDVWGQGTTVTVST
VL: DIQLTQSPSFLSASVGDRVTITCRASQGISSYLAWYQQKPGKAPKLLIYAASTLQSGVPSRFSGSGSGTDFTLTISSLQPEDFATYYCQQLNSYPTFGQGTRLEIKR
B3: P2C-1A3 (antibody, V domains shown)
VH: QVQLVESGGGLVKPGGSLRLSCAASGFTFSDYYMSWIRQAPGKGLEWVSYISSSGSTIYYADSVKGRFTISRDNAKNSLYLQMNSLRAEDTAVYYCARDFSHQQLVPSWGQGTLVTVSS
VL: not shown
B4: P2C-1A3 (antibody, V domains shown)
VH: B3 VH
VL: not shown
B5: P1A-1C10 (antibody, V domains shown)
VH: QVQLVQSGAEVKNPGSSVKVSCKAGGGTSSFYDINWVRQAPGQGLEWIGKIIPRLDIADYAQKSQGRVTITADKSTSTVYLELSSLKSDDTAVYFCARGRPGSEWAYGPFDLWGQGTLVTVSS
VL: DIQMTQSPSTLSASVGDRVTITCRASQSSRAWLAWYQQKPGKAPKLLISKASSLESGVPSRFSGSGYGTEFTLTISSLQPDDSATYYCHQYNSSPFTFGPGTKVQIKR
notes: human IgG1, kappa
B6: P5A-2E1 (antibody, human IgG1, lambda, V domains shown)
VH: EVQLVQSGAEVKKPGESLKISCKGSGYSFTSYWIGWVRQMPGKGLEWMGIIYPGDSDTRYSPSFQGQVTISADKSISTAYLQWSSLKASDTAMYYCAQTSVTRNWFDPWGQGTLVTVSS
VL: SYVLTQPPSVSVAPGKTARITCGGNNIGSKSVHWYQQKPGQAPVLVIYYDSDRPSGIPERFSGSNSGNTATLTISRVEAGDEADYYCQVWDSSSDHVVFGGGTKLTVLG

Columns and labels:
[1] = target: full length spike (S) protein of SARS-CoV-2 on pseudovirus (SARS-CoV-2, UniProt P0DTC2 14-1273); test: cell-based or functional assay
[2] = target: spike (S) protein of live SARS-CoV-2 (SARS-CoV-2, UniProt P0DTC2 14-1273); test: cell-based or functional assay
[3] = target: spike protein of live SARS-CoV-2 (SARS-CoV-2, UniProt P0DTC2 14-1273); test: cell-based or functional assay
[4] = target: spike protein on live SARS-CoV-2 (SARS-CoV-2, UniProt P0DTC2 14-1273); test: cell-based or functional assay
[5] = target: T1, full length spike (S) protein of SARS-CoV-2 (SARS-CoV-2, UniProt P0DTC2 14-1273); test: cell-based or functional assay
[6] = target: recombinant RBD of the spike protein of SARS-CoV-2 (residues Arg319-Phe541) (SARS-CoV-2, UniProt P0DTC2 319-541); test: SPR, RBD on CM5 chip
[7] = target: T1, full length spike (S) protein of …; test: cell-based or functional assay; remark: listed apart in the source

Binder | Pseudovirus IC50 [1] | Pseudovirus IC80 [1] | Live virus IC50 [2] | Live virus IC80 [2] | further results
B1 | 2.62 µg/mL | 4.64 µg/mL | 11.1 µg/mL | > 50 µg/mL | 
B2 |  |  |  |  | Live virus IC50 [3]: 0.0189 µg/mL
B3 |  |  |  |  | IC50, live SARS-CoV-2 focus reduction neutralization test (FRNT) [4]: 0.28 µg/mL
B4 | 0.62 µg/mL | 5.94 µg/mL | 0.283 µg/mL | 1.46 µg/mL | 
B5 |  |  |  |  | IC50, Pesudovirus neutralization [5]: 21.5 µg/mL; Kd [6]: 8.48 nM
B6 |  |  |  |  | IC50, pseudovirus neutralization [7]: 6.97 µg/mL
